The Kd is the equilibrium constant for the complex coming apart. A low value points to tighter binding. As a reminder, the stoichiometry N is the number of molecules, sites or subunits per partner or assembly.

Assay [1] has as its target TβRI ectodomain (human) (UniProt P36897). Put plainly: ITC. In general terms: ITC needs no label: the signal is the heat of the interaction.
For assay [2], the target named is biotinylated avi-tagged TβRII (human) (UniProt P37173). The assay can be described thus: SPR. Background: In SPR one partner is held on a chip, and binding of the other changes the refractive index at the surface.
Sequence of biotinylated avi-tagged TβRII (human) (P37173 23-567): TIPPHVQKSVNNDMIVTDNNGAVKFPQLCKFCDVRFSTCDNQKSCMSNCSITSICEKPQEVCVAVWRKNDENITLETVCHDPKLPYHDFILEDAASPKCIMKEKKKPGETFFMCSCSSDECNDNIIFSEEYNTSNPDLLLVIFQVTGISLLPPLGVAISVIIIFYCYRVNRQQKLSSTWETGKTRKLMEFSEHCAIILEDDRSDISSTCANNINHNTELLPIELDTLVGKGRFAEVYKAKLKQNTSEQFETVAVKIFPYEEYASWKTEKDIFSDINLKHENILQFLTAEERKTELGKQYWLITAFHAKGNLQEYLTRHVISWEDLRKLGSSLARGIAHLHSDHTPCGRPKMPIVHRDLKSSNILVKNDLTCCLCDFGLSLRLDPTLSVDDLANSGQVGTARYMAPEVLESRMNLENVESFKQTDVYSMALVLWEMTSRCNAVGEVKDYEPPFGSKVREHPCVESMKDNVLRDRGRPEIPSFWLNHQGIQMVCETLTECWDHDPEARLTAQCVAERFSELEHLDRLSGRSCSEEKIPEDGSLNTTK
Assay [3] addresses TβRII ectodomain (human) (UniProt P37173). The assay can be described thus: ITC.
Assay [4] concerns the target biotinylated avi-tagged TβRI (human) (UniProt P36897). The assay can be described thus: SPR.
In assay [5] the target is TβRI ectodomain (human) (UniProt P36897). The assay can be described thus: SEC-MALS.
Sequence of TβRI ectodomain (human) (P36897 34-126): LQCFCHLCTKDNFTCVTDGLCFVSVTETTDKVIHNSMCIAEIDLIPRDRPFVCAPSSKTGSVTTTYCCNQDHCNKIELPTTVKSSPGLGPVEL

Sequence of biotinylated avi-tagged TβRI (human) (P36897 34-503): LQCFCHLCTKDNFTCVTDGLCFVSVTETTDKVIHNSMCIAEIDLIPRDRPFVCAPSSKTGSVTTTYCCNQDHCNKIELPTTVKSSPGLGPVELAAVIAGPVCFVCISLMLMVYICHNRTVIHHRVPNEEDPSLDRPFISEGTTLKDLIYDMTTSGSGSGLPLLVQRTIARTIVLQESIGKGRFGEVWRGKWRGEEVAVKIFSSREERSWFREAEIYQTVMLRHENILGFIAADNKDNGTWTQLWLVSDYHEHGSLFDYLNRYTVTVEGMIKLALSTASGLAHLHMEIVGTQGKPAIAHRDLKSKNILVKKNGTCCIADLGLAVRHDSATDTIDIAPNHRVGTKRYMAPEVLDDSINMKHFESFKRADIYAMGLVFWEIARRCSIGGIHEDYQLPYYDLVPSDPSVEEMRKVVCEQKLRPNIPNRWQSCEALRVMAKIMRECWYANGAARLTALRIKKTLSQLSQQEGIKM
Sequence of TβRII ectodomain (human) (P37173 23-166): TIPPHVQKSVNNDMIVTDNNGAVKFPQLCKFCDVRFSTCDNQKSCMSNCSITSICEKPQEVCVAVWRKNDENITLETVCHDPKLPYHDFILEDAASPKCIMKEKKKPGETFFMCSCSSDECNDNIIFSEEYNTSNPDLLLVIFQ
Sequence of TGF-β3:TβRII binary complex (P37173 whole entry, looked up, one chain of several): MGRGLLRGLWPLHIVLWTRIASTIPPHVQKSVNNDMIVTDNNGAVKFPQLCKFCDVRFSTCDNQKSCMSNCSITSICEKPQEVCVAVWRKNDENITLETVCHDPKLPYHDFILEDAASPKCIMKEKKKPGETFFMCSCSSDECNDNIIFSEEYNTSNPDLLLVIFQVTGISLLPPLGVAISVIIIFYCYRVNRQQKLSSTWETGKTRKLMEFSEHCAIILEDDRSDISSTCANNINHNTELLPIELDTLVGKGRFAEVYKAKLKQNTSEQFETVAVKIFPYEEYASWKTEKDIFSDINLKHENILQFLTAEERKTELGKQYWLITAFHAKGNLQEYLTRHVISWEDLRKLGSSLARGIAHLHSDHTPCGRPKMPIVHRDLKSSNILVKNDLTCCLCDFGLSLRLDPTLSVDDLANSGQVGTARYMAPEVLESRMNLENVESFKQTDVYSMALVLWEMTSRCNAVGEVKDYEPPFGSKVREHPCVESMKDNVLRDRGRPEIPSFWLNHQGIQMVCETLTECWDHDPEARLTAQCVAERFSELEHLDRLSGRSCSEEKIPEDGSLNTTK

On to “TGF-β3:TβRII binary complex (from UniProt P37173 23-166)”, for which, in assay [1], the dissociation constant Kd came out at 61.7 nM and the dH is -4.21 kcal/mol.
In assay [2], TGM domain 3 (domain or fragment) came in with a Kd of 910 nM. In assay [3], the Kd worked out at 1150 nM and the dH is -10.7 kcal/mol.
Turning to “full-length TGM (TGF-β mimic of Heligmosomoides polygyrus) (natural protein)”, the Kd was 610 nM in assay [2], 13.1 nM in assay [4], 52.1 nM in assay [1] and 550 nM in assay [3]. Moreover, the dH in assay [1] is -16.7 kcal/mol; in assay [3], -7.14 kcal/mol.
“TGM domains 1 and 2 (domain or fragment)”: the Kd in assay [4] turned out to be 24100 nM. Also, in assay [1], the equilibrium dissociation constant (Kd) was found to be 25.3 nM and the dH is -18.7 kcal/mol.
Take TGM domain 2 (domain or fragment): in assay [4], the dissociation constant Kd amounted to 309 nM. Besides, in assay [1], the equilibrium dissociation constant (Kd) was determined as 1470 nM and the dH was -17.7 kcal/mol. For the same substance, the stoichiometry N in assay [5] was 1.

The values above are taken from paper doi:10.1101/2020.12.08.416701.
